B1: 抗PSMP的单克隆抗体3D5 (antibody, V domains shown)
VH: EVQLQQSGPELVKPGASVKISCKASGYSFTGYFMNWVMQSHGKSLEWIGRINPYNGDTFYNQKFKGKATLTVDKSSSTAHMELRSLASEDSAVYYCARGGDGYYAFAYWGQGTLVTVSA
VL: NIVMTQSPKSMSMSVGERVTLSCRASENVGTYVSWYQQKPEQSPKLLIYGASNRYTGVPDRFTGSGSATDFTLTISSVQAEDLADYHCGQSYSYMYTFGGGTKLEIKR
notes: Mouse hybridoma antibody, heavy chain IgG1, light chain kappa, purified from ascites on Protein G Sepharose; also called 鼠单抗3D5; 3D5中和抗体
B2: 共转染含有3D5重链和轻链基因的质粒的293T上清中表达的抗体 (antibody, V domains shown)
VH: EVQLQQSGPELVKPGASVKISCKASGYSFTGYFMNWVMQSHGKSLEWIGRINPYNGDTFYNQKFKGKATLTVDKSSSTAHMELRSLASEDSAVYYCARGGDGYYAFAYWGQGTLVTVSA
VL: NIVMTQSPKSMSMSVGERVTLSCRASENVGTYVSWYQQKPEQSPKLLIYGASNRYTGVPDRFTGSGSATDFTLTISSVQAEDLADYHCGQSYSYMYTFGGGTKLEIKR
notes: It was tested as culture supernatant

Assays:
[1] = target: T1, PC3细胞内源性PSMP蛋白 (human, UniProt Q1L6U9 36-139, limits assumed); test: Western blot of PC3 cells
T1 construct: Detected by Western blot and by immunocytochemistry in PC3 cells
T1 sequence (looked up): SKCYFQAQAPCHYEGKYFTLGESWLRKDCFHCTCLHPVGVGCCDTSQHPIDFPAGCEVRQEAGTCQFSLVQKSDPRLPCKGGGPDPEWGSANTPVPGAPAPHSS

[2] = target: T2, PSMP蛋白 (human, UniProt Q1L6U9 36-139, limits assumed); test: cytometric bead array, rabbit polyclonal on beads, 3D5 at 5 μg/ml as detection antibody
T2 sequence (looked up): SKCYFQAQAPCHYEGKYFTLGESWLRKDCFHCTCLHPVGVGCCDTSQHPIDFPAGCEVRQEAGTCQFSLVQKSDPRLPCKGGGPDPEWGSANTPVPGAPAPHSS

[3] = target: T3, PSMP真核蛋白 (human, UniProt Q1L6U9 36-139); test: ELISA
T3 construct: mature; Eukaryotically expressed secreted PSMP; The expression construct and any tags are not described; also called 重组PSMP真核蛋白; PSMP分泌蛋白
T3 sequence (looked up): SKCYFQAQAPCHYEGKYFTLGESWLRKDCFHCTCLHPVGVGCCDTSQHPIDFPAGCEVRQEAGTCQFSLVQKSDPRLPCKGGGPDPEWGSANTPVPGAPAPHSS

[4] = target: T2, PSMP蛋白; test: ELISA with 293T expression supernatant

Binder	binding result [1]	binding result [2]	binding result [3]	binding result [4]
B1	binds	binds	binds	–
B2	–	–	–	binds

Source: patent publication CN106749661A (UNIV BEIJING, dated 2017)
